Results as given in the RNAGym collection of RNA variant scans (doi:10.1073/pnas.2313332121).

B1: TPR t1 (parent)
chain: GACCAAUCUGCCCUCAGAGCUCGAGAACAUCUUCGGAUGCAGAGGAGGCAGGCUUCGGUGGCGCGAUAGCGCCAACGUCCUCAACCUCCAAUGCAUCCCACCACAUGAUGAUGCCUGAAGAGCCUUGGUUUUUUG

Variants of: B1
Assay: polymerase ribozyme fitness, log enrichment relative to wild type (log ratio); higher = more active; in vitro selection for triplet polymerase activity
Outline: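 Each subunit of a heterodimeric triplet polymerase ribozyme was mutagenized into a library by PCR, transcribed, and subjected to one round of in vitro selection, run in triplicate. Libraries were annealed with a biotinylated primer, the partner subunit and triplets, incubated frozen at −7 °C, and extended constructs were gel-excised, captured on streptavidin beads and recovered by RT-PCR. Input and output libraries were sequenced on Illumina, keeping genotypes with ≥10 input reads and ≥1 read per output. Fitness is log base 2 of genotype enrichment divided by wild-type enrichment, from inverse-variance-weighted replicate averages.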

First: G10C A43U U129C
Second: U9G C56U G61U
The “polymerase ribozyme fitness (log ratio)” value of the first is higher: -3.15 for the first, -4.53 for the second.

Compared with G10A A29U C72A C88G U116G, G10A A90C G93C A111U is lower in “polymerase ribozyme fitness (log ratio)” value: -3.97 for the first, -5.12 for the second.

Compared with G10A G93U C102A, U9G G36A C101G A121U is higher in “polymerase ribozyme fitness (log ratio)” value: -3.7 for the first, -0.24 for the second.

First: U9G A18C C56G G120A U130A
Second: G10U A18U C70U
The “polymerase ribozyme fitness (log ratio)” value of the first is higher: -1.19 for the first, -4.05 for the second.

Compared with G10A U59C A66C A68G U106G A121U, G10U C15U C56A C72G G120A is higher in “polymerase ribozyme fitness (log ratio)” value: -4.4 for the first, -0.935 for the second.

Compared with G10U A50U, G10A C20U A27C G61U C102U is lower in “polymerase ribozyme fitness (log ratio)” value: -1.65 for the first, -6.05 for the second.

Going from G10U C13U G61U to G10A A18U G77A U87A C115A, the “polymerase ribozyme fitness (log ratio)” value falls from -0.215 to -1.44.

Compared with G10U G110A, G10U A16C C49U A118G C124A is lower in “polymerase ribozyme fitness (log ratio)” value: -1.35 for the first, -2.5 for the second.

Compared with G10A A90C A121C, C11A A37C U54C is lower in “polymerase ribozyme fitness (log ratio)” value: 0.254 for the first, -2.16 for the second.

Going from G10A G63U C86U G120A to U9G A27U G39U A46U, the “polymerase ribozyme fitness (log ratio)” value falls from 0.0567 to -4.

First: G10C C12A G51A G127C
Second: G10C G113C
The “polymerase ribozyme fitness (log ratio)” value of the first is lower: -4.99 for the first, -2.27 for the second.

First: U9G G48A G93C
Second: G10A C34A
The “polymerase ribozyme fitness (log ratio)” value of the first is higher: -1.01 for the first, -2.87 for the second.

First: U9G C62U
Second: G10A G57U A90G U126A
The “polymerase ribozyme fitness (log ratio)” value of the first is higher: -0.19 for the first, -1.18 for the second.

Going from U9G C40A U54G U81G C85A C123G to G10U U55G A111C, the “polymerase ribozyme fitness (log ratio)” value rises from -5.22 to -0.134.

First: U9C G60U C99A
Second: G10U A41U C72G C101U G110A
The “polymerase ribozyme fitness (log ratio)” value of the first is lower: -6.14 for the first, -4.92 for the second.

First: U9G A41U U54A U78C
Second: U9C C56G G60A C88G
The “polymerase ribozyme fitness (log ratio)” value of the first is higher: -1.59 for the first, -3.64 for the second.

Going from U9C C49A C62U C123U to G10U A27C U112C, the “polymerase ribozyme fitness (log ratio)” value falls from 1.78 to -1.73.

Going from G10A C97U to G10U U78C C88G, the “polymerase ribozyme fitness (log ratio)” value falls from -0.852 to -1.13.

Going from U9G C13A G48C C56A C72A U78A to U9G G51C G61U G127C, the “polymerase ribozyme fitness (log ratio)” value falls from -1.24 to -3.3.

First: G10U C82G G117C
Second: G10A G61U G122A
The “polymerase ribozyme fitness (log ratio)” value of the first is lower: -4.93 for the first, 0.738 for the second.

Going from G10C G42U to G10U C13A C104U, the “polymerase ribozyme fitness (log ratio)” value rises from -2.19 to -0.097.

First: G10U G113U
Second: G10A C13U U38G C56U C82G
The “polymerase ribozyme fitness (log ratio)” value of the first is lower: -2.76 for the first, -1.27 for the second.

Going from U9G C62G G120C to U9G A111U A118U G120A, the “polymerase ribozyme fitness (log ratio)” value falls from 0.877 to -2.78.

First: G10A C56U A74C A75U G93U
Second: G10U C56A U59C U112A
The “polymerase ribozyme fitness (log ratio)” value of the first is lower: -0.9 for the first, -0.649 for the second.

Going from G10U C20U U32A A84U C104A to G10U C12A G71U U78A C80U C114G, the “polymerase ribozyme fitness (log ratio)” value rises from -3.8 to -3.23.

Compared with G10U C13U G60C G107A U112C G127U, U9C C31G U92A G93C C114A is lower in “polymerase ribozyme fitness (log ratio)” value: -4.55 for the first, -5.25 for the second.

First: G10C C13G G61A U106G A118U
Second: G10U C11G A29C C53A A74U
The “polymerase ribozyme fitness (log ratio)” value of the first is higher: -2.68 for the first, -3.94 for the second.

Compared with U9G G60A A90C C123U, G10A U92A is lower in “polymerase ribozyme fitness (log ratio)” value: 0.324 for the first, -2.86 for the second.

Compared with G10A G107A C123U C124A, G10U C56A is higher in “polymerase ribozyme fitness (log ratio)” value: -4.28 for the first, 0.154 for the second.

First: G10U C15U A91C U125A
Second: G10U A83U
The “polymerase ribozyme fitness (log ratio)” value of the first is lower: -3.89 for the first, -0.308 for the second.

Compared with G10A G44A G47A G61C, C11A C12U G71U A84C is higher in “polymerase ribozyme fitness (log ratio)” value: -3.22 for the first, -1.73 for the second.

First: G10U C20G C99U C115U
Second: U9G C13A U59A C72A
The “polymerase ribozyme fitness (log ratio)” value of the first is lower: -8.2 for the first, -1.53 for the second.

Compared with G10C C15A G69U U112G, U9G C11A G52A G57C U116G A121G is higher in “polymerase ribozyme fitness (log ratio)” value: -1.87 for the first, 0.971 for the second.

First: G10U U129C
Second: U9G A46C G61A U87A G93C C115A U116C A119C
The “polymerase ribozyme fitness (log ratio)” value of the first is higher: -1.9 for the first, -3.51 for the second.

Going from G10A C40U G69C C123G to G10C A37U C72A, the “polymerase ribozyme fitness (log ratio)” value falls from -0.405 to -0.966.

Compared with G10C U38C C40U C64U C101A, G10A G17U C115A G135U is higher in “polymerase ribozyme fitness (log ratio)” value: -1.8 for the first, 0.196 for the second.

Going from G10U C73G to U9C G57U, the “polymerase ribozyme fitness (log ratio)” value rises from -0.976 to 0.0681.

Compared with U9G G77A U78C C98A G113C, U9G G45A is higher in “polymerase ribozyme fitness (log ratio)” value: -5.07 for the first, 0.293 for the second.

Compared with G10U U14G U116C, G10A A29C G39A G69U is lower in “polymerase ribozyme fitness (log ratio)” value: -1.69 for the first, -2.05 for the second.

Going from G10A C40A C72A A111C to G10A C53A G71C C104U G110A C114G, the “polymerase ribozyme fitness (log ratio)” value falls from -1.19 to -6.44.

Compared with G10A A37U C72A G77C G113A C114U U116G G128A, U9G G61U G117A is higher in “polymerase ribozyme fitness (log ratio)” value: -7.17 for the first, 1.58 for the second.

For U9G U21A C97A, the “polymerase ribozyme fitness (log ratio)” value was -4.03.
